From publication PMC2746992 come the findings set out here.

What all share (experiment): spectrophotometric, decrease in A260
Common to all, as to conditions: 50 mM Tris-HCl, pH 7.5, 0.1 mM MnCl2, 25 °C

Substrate in series [1]: O=C(O)/C=C\C=C/C(=O)O
The format is biochemical, Pseudomonas protegens.

Substrate in series [2]: O=C(O)/C=C\C=C/C(=O)O
It is filed as biochemical, Pseudomonas putida.

Substrate in series [3]: O=C(O)/C=C\C=C/C(=O)O
The format is biochemical, Mycolicibacterium smegmatis.

B1: MLE-1 from Pseudomonas fluorescens (MLE-PF, syn-MLE) (Pseudomonas protegens Pf-5) (protein)
chain: MHASAIESIETIIVDLPTIRPHKLAMHTMQNQTLVLIRLRCADGIEGLGESTTIGGLAYGNESPDSIKTNIDRFVAPLLIGQDASNINAAMLRLEQSIRGNTFAKSGIESALLDAQGKRLGLPVSELLGGRVRDALPVAWTLASGDTAKDIAEAQKMLDLRRHRIFKLKIGAGEVDRDLAHVIAIKKALGDSASVRVDVNQAWDEAVALRACRILGGNGIDLIEQPISRNNRAGMVRLNASSPAPIMADESIECVEDAFNLAREGAASVFALKIAKNGGPRATLRTAAIAEAAGIGLYGGTMLEGGIGTLASAHAFLTLNKLSWDTELFGPLLLTEDILAEPPVYRDFHLHVSKAPGLGLSLDEERLAFFRRD
The kcat is the maximal rate divided by the concentration of active sites. One may read the kcat/Km as the turnover number divided by the Michaelis constant. For B1, in series [1], the Km entry was “(1.6 ± 0.2) × 10^-5 M”, the kcat was found to be 110 ± 2 s⁻¹ and the kcat/Km was 7e+06 M⁻¹ s⁻¹.

B2: MLE-1 from Pseudomonas putida (Pseudomonas putida) (protein)
chain: TSVLIERIEAIIVHDLPTIRPPHKLAMHTMQTQTLVLIRVRCSDGVEGIGEATTIGGLAYGYESPEGIKANIDAHLAPALVGLPADNINAAMLKLDKLAKGNTFAKSGIESALLDAQGKRLGLPVSELLGGRVRDSLEVAWTLASGDTARDIAEAQHMLEIRRHRVFKLKIGANPLAQDLKHVVAIKRELGDSASVRVDVNQYWDESQAIRACQVLGDNGIDLIEQPISRINRSGQVRLNQRSPAPIMADESIESVEDAFSLAADGAASIFALKIAKNGGPRAVLRTAQIAEAAGIALYGGTMLEGSIGTLASAHAFLTLRQLTWGTELFGPLLLTEEIVNEPPQYRDFQLHIPRTPGLGLTLDEQRLARFARR
Consider B2, for which, in series [2], the Km result is “(5.4 ± 0.5) × 10^-4 M”, the turnover number (kcat) stood at 11 ± 0.5 s⁻¹ and the kcat/Km is 20000 M⁻¹ s⁻¹.

B3: MLE-2 from Mycobacterium smegmatis (MLE-MS, anti-MLE) (Mycolicibacterium smegmatis MC2 155) (protein)
chain: MKIVAIGAIPFSIPYTKPLRFASGEVHAAEHVLVRVHTDDGIVGVAEAPPRPFTYGETQTGIVAVIEQYFAPALIGLTLTEREVAHTRMARTVGNPTAKAAIDMAMWDALGQSLRLSVSEMLGGYTDRMRVSHMLGFDDPVKMVAEAERIRETYGINTFKVKVGRRPVQLDTAVVRALRERFGDAIELYVDGNRGWSAAESLRAMREMADLDLLFAEELCPADDVLSRRRLVGQLDMPFIADESVPTPADVTREVLGGSATAISIKTARTGFTGSTRVHHLAEGLGLDMVMGNQIDGQIGTACTVSFGTAFERTSRHAGELSNFLDMSDDLLTVPLQISDGQLHRRPGPGLGIEIDPDKLAHYRTDN
In the case of B3, in series [3], the Km result is “(5.6 ± 1) × 10^-4 M”, the kcat stood at 78 ± 6 s⁻¹ and the kcat/Km is 140000 M⁻¹ s⁻¹.
